# Experimental data: patent US20200054723A1 (ALLAKOS, published 2020)
# Values joined by “and” are separate entries in the source; they are usually repeats but may differ in a detail not shown here. Identical values can stand only once.
# B1: mouse 2C4 antibody (antibody, mouse IgG1, kappa)
# heavy: QVQLKRASGPGLVAPSQSLSITCTVSGFSLTIYGAHWVRQPPGKGLEWLGVIWAGGSTNYNSALMSRLSISKDNSKSQVFLKINSLQTDDTALYYCARDGSSPYYYSMEYWGQGTSVTVSSAKTTPPSVYPLAPGSAAQTNSMVTLGCLVKGYFPEPVTVTWNSGSLSSGVHTFPAVLESDLYTLSSSVTVPSSPRPSETVTCNVAHPASSTKVDKKIVPRDCGCKPCICTVPEVSSVFIFPPKPKDVLTITLTPKVTCVVVDISKDDPEVQFSWFVDDVEVHTAQTQPREEQFNSTFRSVSELPIMHQDWLNGKEFKCRVNSAAFPAPIEKTISKTKGRPKAPQVYTIPPPKEQMAKDKVSLTCMITDFFPEDITVEWQWNGQPAENYKNTQPIMNTNGSYFVYSKLNVQKSNWEAGNTFTCSVLHEGLHNHHTEKSLSHSPG
# light: EIILTQSPAIMSASPGEKVSITCSATSSVSYMHWFQQKPGTSPKLWIYSTSNLASGVPVRFSGSGSGTSYSLTISRMEAEDAATYYCQQRSSYPFTFGSGTKLEIKADAAPTVSIFPPSSEQLTSGGASVVCFLNNFYPKDINVKWKIDGSERQNGVLNSWTDQDSKDSTYSMSSTLTLTKDEYERHNSYTCEATHKTSTSPIVKSFNRNEC
# notes: murine IgG1/kappa; also called mo2C4; m2C4
# B2: HAKA (antibody, human IgG1, V domains shown)
# VH: EVQLVESGGGLVQPGGSLRLSCAASGFSLTIYGAHWVRQAPGKGLEWVSVIWAGGSTNYNSALMSRFTISKDNSKNTVYLQMNSLRAEDTAVYYCARDGSSPYYYSMEYWGQGTTVTVSS
# VL: EIVLTQSPATLSLSPGERATLSCSATSSVSYMHWFQQKPGQAPRLLIYSTSNLASGIPARFSGSGSGTDFTLTISSLEPEDFAVYYCQQRSSYPFTFGPGTKLDIK
# notes: human IgG1/kappa
# B3: HBKG (antibody, human IgG1, V domains shown)
# VH: EVQLVESGGGLVQPGGSLRLSCAVSGFSLTIYGAHWVRQAPGKGLEWLGVIWAGGSTNYNSALMSRLSISKDNSKNTVYLQMNSLRAEDTAVYYCARDGSSPYYYSMEYWGQGTTVTVSS
# VL: EIVLTQSPATLSLSPGERATLSCSATSSVSYMHWYQQKPGQAPRLLIYSTSNLASGIPARFSGSGSGTDFTLTISSLEPEDFAVYYCQQRSSYPFTFGPGTKLDIK
# notes: human IgG1/kappa
# B4: HAKC (antibody, human IgG1, V domains shown)
# VH: EVQLVESGGGLVQPGGSLRLSCAASGFSLTIYGAHWVRQAPGKGLEWVSVIWAGGSTNYNSALMSRFTISKDNSKNTVYLQMNSLRAEDTAVYYCARDGSSPYYYSMEYWGQGTTVTVSS
# VL: EIILTQSPATLSLSPGERATLSCSATSSVSYMHWFQQKPGQAPRLLIYSTSNLASGIPARFSGSGSGTDFTLTISSLEPEDFAVYYCQQRSSYPFTFGPGTKLDIK
# notes: human IgG1/kappa
# B5: HAKE (antibody, human IgG1, V domains shown)
# VH: EVQLVESGGGLVQPGGSLRLSCAASGFSLTIYGAHWVRQAPGKGLEWVSVIWAGGSTNYNSALMSRFTISKDNSKNTVYLQMNSLRAEDTAVYYCARDGSSPYYYSMEYWGQGTTVTVSS
# VL: EIVLTQSPATLSLSPGERATLSCSATSSVSYMHWFQQKPGQAPRLLIYSTSNLASGVPARFSGSGSGTDFTLTISSLEPEDFAVYYCQQRSSYPFTFGPGTKLDIK
# notes: human IgG1/kappa
# B6: HBKC (antibody, human IgG1, V domains shown)
# VH: EVQLVESGGGLVQPGGSLRLSCAVSGFSLTIYGAHWVRQAPGKGLEWLGVIWAGGSTNYNSALMSRLSISKDNSKNTVYLQMNSLRAEDTAVYYCARDGSSPYYYSMEYWGQGTTVTVSS
# VL: EIILTQSPATLSLSPGERATLSCSATSSVSYMHWFQQKPGQAPRLLIYSTSNLASGIPARFSGSGSGTDFTLTISSLEPEDFAVYYCQQRSSYPFTFGPGTKLDIK
# notes: human IgG1/kappa
# B7: HBKB (antibody, human IgG1, V domains shown)
# VH: EVQLVESGGGLVQPGGSLRLSCAVSGFSLTIYGAHWVRQAPGKGLEWLGVIWAGGSTNYNSALMSRLSISKDNSKNTVYLQMNSLRAEDTAVYYCARDGSSPYYYSMEYWGQGTTVTVSS
# VL: EIILTQSPATLSLSPGERATLSCSATSSVSYMHWFQQKPGQAPRLWIYSTSNLASGVPARFSGSGSGTDYTLTISSLEPEDFAVYYCQQRSSYPFTFGPGTKLDIK
# notes: human IgG1/kappa
# B8: HBKA (antibody, human IgG1, V domains shown)
# VH: EVQLVESGGGLVQPGGSLRLSCAVSGFSLTIYGAHWVRQAPGKGLEWLGVIWAGGSTNYNSALMSRLSISKDNSKNTVYLQMNSLRAEDTAVYYCARDGSSPYYYSMEYWGQGTTVTVSS
# VL: EIVLTQSPATLSLSPGERATLSCSATSSVSYMHWFQQKPGQAPRLLIYSTSNLASGIPARFSGSGSGTDFTLTISSLEPEDFAVYYCQQRSSYPFTFGPGTKLDIK
# notes: human IgG1/kappa
# B9: HAKF (antibody, human IgG1, V domains shown)
# VH: EVQLVESGGGLVQPGGSLRLSCAASGFSLTIYGAHWVRQAPGKGLEWVSVIWAGGSTNYNSALMSRFTISKDNSKNTVYLQMNSLRAEDTAVYYCARDGSSPYYYSMEYWGQGTTVTVSS
# VL: EIVLTQSPATLSLSPGERATLSCSATSSVSYMHWFQQKPGQAPRLLIYSTSNLASGIPARFSGSGSGTDYTLTISSLEPEDFAVYYCQQRSSYPFTFGPGTKLDIK
# notes: human IgG1/kappa
# B10: HAKB (antibody, human IgG1, V domains shown)
# VH: EVQLVESGGGLVQPGGSLRLSCAASGFSLTIYGAHWVRQAPGKGLEWVSVIWAGGSTNYNSALMSRFTISKDNSKNTVYLQMNSLRAEDTAVYYCARDGSSPYYYSMEYWGQGTTVTVSS
# VL: EIILTQSPATLSLSPGERATLSCSATSSVSYMHWFQQKPGQAPRLWIYSTSNLASGVPARFSGSGSGTDYTLTISSLEPEDFAVYYCQQRSSYPFTFGPGTKLDIK
# notes: human IgG1/kappa
# B11: HBKFmut (antibody, human IgG1, V domains shown)
# VH: EVQLVESGGGLVQPGGSLRLSCAVSGFSLTIYGAHWVRQAPGKGLEWLGVIWAGGSTNYNSALMSRLSISKDNSKNTVYLQMNSLRAEDTAVYYCARDGSSPYYYSMEYWGQGTTVTVSS
# VL: EIVLTQSPATLSLSPGERATLSCSATSSVSYMHWFQQKPGQAPRLLIYSTSNLASGIPARFSGSGSGTDYTLTISSLEPEDFAVYYCQQRSSYPYTFGPGTKLDIK
# notes: human IgG1/kappa
# B12: HAKFmut (antibody, human IgG1, V domains shown)
# VH: EVQLVESGGGLVQPGGSLRLSCAASGFSLTIYGAHWVRQAPGKGLEWVSVIWAGGSTNYNSALMSRFTISKDNSKNTVYLQMNSLRAEDTAVYYCARDGSSPYYYSMEYWGQGTTVTVSS
# VL: EIVLTQSPATLSLSPGERATLSCSATSSVSYMHWFQQKPGQAPRLLIYSTSNLASGIPARFSGSGSGTDYTLTISSLEPEDFAVYYCQQRSSYPYTFGPGTKLDIK
# notes: human IgG1/kappa
# B13: HBKD (antibody, human IgG1, V domains shown)
# VH: EVQLVESGGGLVQPGGSLRLSCAVSGFSLTIYGAHWVRQAPGKGLEWLGVIWAGGSTNYNSALMSRLSISKDNSKNTVYLQMNSLRAEDTAVYYCARDGSSPYYYSMEYWGQGTTVTVSS
# VL: EIVLTQSPATLSLSPGERATLSCSATSSVSYMHWFQQKPGQAPRLWIYSTSNLASGIPARFSGSGSGTDFTLTISSLEPEDFAVYYCQQRSSYPFTFGPGTKLDIK
# notes: human IgG1/kappa
# B14: HBKE (antibody, human IgG1, V domains shown)
# VH: EVQLVESGGGLVQPGGSLRLSCAVSGFSLTIYGAHWVRQAPGKGLEWLGVIWAGGSTNYNSALMSRLSISKDNSKNTVYLQMNSLRAEDTAVYYCARDGSSPYYYSMEYWGQGTTVTVSS
# VL: EIVLTQSPATLSLSPGERATLSCSATSSVSYMHWFQQKPGQAPRLLIYSTSNLASGVPARFSGSGSGTDFTLTISSLEPEDFAVYYCQQRSSYPFTFGPGTKLDIK
# notes: human IgG1/kappa
# B15: HBKF (antibody, human IgG1, V domains shown)
# VH: EVQLVESGGGLVQPGGSLRLSCAVSGFSLTIYGAHWVRQAPGKGLEWLGVIWAGGSTNYNSALMSRLSISKDNSKNTVYLQMNSLRAEDTAVYYCARDGSSPYYYSMEYWGQGTTVTVSS
# VL: EIVLTQSPATLSLSPGERATLSCSATSSVSYMHWFQQKPGQAPRLLIYSTSNLASGIPARFSGSGSGTDYTLTISSLEPEDFAVYYCQQRSSYPFTFGPGTKLDIK
# notes: human IgG1/kappa
# B16: HAKD (antibody, human IgG1, V domains shown)
# VH: EVQLVESGGGLVQPGGSLRLSCAASGFSLTIYGAHWVRQAPGKGLEWVSVIWAGGSTNYNSALMSRFTISKDNSKNTVYLQMNSLRAEDTAVYYCARDGSSPYYYSMEYWGQGTTVTVSS
# VL: EIVLTQSPATLSLSPGERATLSCSATSSVSYMHWFQQKPGQAPRLWIYSTSNLASGIPARFSGSGSGTDFTLTISSLEPEDFAVYYCQQRSSYPFTFGPGTKLDIK
# notes: human IgG1/kappa
# B17: HAKG (antibody, human IgG1, V domains shown)
# VH: EVQLVESGGGLVQPGGSLRLSCAASGFSLTIYGAHWVRQAPGKGLEWVSVIWAGGSTNYNSALMSRFTISKDNSKNTVYLQMNSLRAEDTAVYYCARDGSSPYYYSMEYWGQGTTVTVSS
# VL: EIVLTQSPATLSLSPGERATLSCSATSSVSYMHWYQQKPGQAPRLLIYSTSNLASGIPARFSGSGSGTDFTLTISSLEPEDFAVYYCQQRSSYPFTFGPGTKLDIK
# notes: human IgG1/kappa
# B18: HCKA (antibody, human IgG1, V domains shown)
# VH: EVQLVESGGGLVQPGGSLRLSCAVSGFSLTIYGAHWVRQAPGKGLEWVSVIWAGGSTNYNSALMSRFTISKDNSKNTVYLQMNSLRAEDTAVYYCARDGSSPYYYSMEYWGQGTTVTVSS
# VL: EIVLTQSPATLSLSPGERATLSCSATSSVSYMHWFQQKPGQAPRLLIYSTSNLASGIPARFSGSGSGTDFTLTISSLEPEDFAVYYCQQRSSYPFTFGPGTKLDIK
# notes: human IgG1/kappa
# Molecular target: T1, recombinant human Siglec-8 extracellular domain (ECD) (human, UniProt Q9NYZ4 17-363)
# T1 construct: extracellular domain; also called Siglec-8 ECD; full Siglec-8 ECD
# T1 sequence (Q9NYZ4 17-363): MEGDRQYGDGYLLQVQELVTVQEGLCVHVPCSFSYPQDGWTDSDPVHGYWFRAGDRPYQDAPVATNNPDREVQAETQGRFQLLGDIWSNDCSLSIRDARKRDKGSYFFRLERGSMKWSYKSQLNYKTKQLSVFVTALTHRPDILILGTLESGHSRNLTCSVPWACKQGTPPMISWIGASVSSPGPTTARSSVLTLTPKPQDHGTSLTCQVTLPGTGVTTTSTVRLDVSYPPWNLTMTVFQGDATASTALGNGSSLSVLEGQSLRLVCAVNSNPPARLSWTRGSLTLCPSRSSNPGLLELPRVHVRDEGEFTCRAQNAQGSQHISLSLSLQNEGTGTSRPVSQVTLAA
# Test: ELISA, coated Siglec-8 ECD
# Method: Binding of recombinant human Siglec-8 extracellular domain (ECD) by chimeric 2E2 and chimeric 2C4 IgG1K antibodies was measured by ELISA. […] Three-fold serial dilutions of a chimeric antibody (ch2E2 or ch2C4) or mouse antibody (m2E2 or m2C4) in 0.2% BSA/TBS (starting concentration was 5000 ng/mL) was added to each coated well. The plate was incubated for 2 hours at room temperature and the wells were subsequently washed before addition of goat-anti-human Fc peroxidase conjugate (1:10000 dilution) or anti-mouse Fc peroxidase conjugate (1:30000 dilution) diluted in 0.2% BSA/TBS solution. The plate was incubated for 45 minutes at room temperature, followed by washing and addition of 30 μL K-blue HRP substrate (SkyBio Ltd) to each well. After incubation at room temperature for 15 minutes, the reaction was stopped by adding 10 μL of Red Stop solution (SkyBio Ltd) to each well. The optical density or the experimental samples was read at 650 nm using the ELISA reader PHERAStar FS (BMG Labtech).
# The fully humanized antibody heavy and light chains were combined and compared with the chimeric antibody to determine if replacing the 4 Å and canonical framework residues and interface residues was sufficient to successfully humanize 2E2. Expi293 cells were co-transfected with combinations of different humanized light chain vectors in association with different humanized heavy chain vectors. Siglec-8 antigen was used to measure antibody binding by ELISA as described in Example 1.
row,Binder,EC50
1,B1,0.115 nM
2,B2,0.085 nM and 0.058 nM
3,B3,0.212 nM
4,B4,0.066 nM
5,B5,0.052 nM
6,B6,0.033 nM
7,B7,0.056 nM
8,B8,0.055 nM and 0.07 nM
9,B9,0.078 nM and 0.062 nM
10,B10,0.071 nM
11,B11,0.048 nM
12,B12,0.086 nM
13,B13,0.039 nM
14,B14,0.061 nM
15,B15,0.066 nM and 0.051 nM
16,B16,0.058 nM
17,B17,0.189 nM
18,B18,0.056 nM
